The values below come from article PMC8304084, “A Concerted Action of UBA5 C-Terminal Unstructured Regions Is Important for Transfer of Activated UFM1 to UFC1” (International Journal of Molecular Sciences, 2021).

Common to all, as to type: binding
One assay addresses T1, GABARAPL2 (Homo sapiens, UniProt P60520).
T1 construct: modified ubiquitin tag (Ub19) with TEV site (N, cleaved yes); made in house; host or cells: E. coli T7 Express
Nature of the assay: NMR titration with GABARAPL2. The settings on record: NMR titration of 15N-labeled R1-R2-R3^325–404 with GABARAPL2, 25 °C.

In another assay the target is T2, LC3A (Homo sapiens, UniProt Q9H492).
T2 construct: LC3A, residues 4–120; ubiquitin tag Ub3 (vector pETm60_Ub3) (cleaved yes); made in house; host or cells: E. coli T7 Express
T2 sequence (Q9H492 4-120): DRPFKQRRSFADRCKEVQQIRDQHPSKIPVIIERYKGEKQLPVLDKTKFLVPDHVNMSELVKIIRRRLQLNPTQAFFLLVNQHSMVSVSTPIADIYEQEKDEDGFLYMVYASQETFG
Nature of the assay: ITC, UBA5 peptides vs LC3A. The settings on record: 25 °C. The text has this:
To understand how the UBA5 C-terminus participates in the ufmylation cascade, we performed isothermal titration calorimetry (ITC) experiments, in which we titrated UBA5 C-terminal peptides (see Table 1) to the UBA5 AD, UFC1, UFM1 and representative LC3/GABARAP proteins (Figure 2A, Supplementary Figure S2A–D and Table 2).
All proteins and peptides were expressed in E.Coli T7 Express (New England Biolabs GmbH, Frankfurt, Germany) cells in LB or M9 (to obtain ^15N- and ^13C,^15N-labeled polypeptides) media according to the protocol described in [33, 36]. For protein purification, bacterial cell pellets were resuspended in lysis buffer (50 mM Tris-HCl pH = 7.5, 100 mM NaCl, 5% glycerol, 5 mM PIC (protease inhibitor cocktail)) and lysed via sonication (TT13 Sonotrode, 40% amplitude, for 6 × 1 min with a 0.5/0.5-s pulse). Lysates were centrifuged for 45 min at 17,000× g at 4 °C. Supernatants were loaded onto a His Trap Fast Flow 5 mL column (GE Healthcare, München, Germany) equilibrated in loading buffer (50 mM Tris-HCl pH = 8.0, 250 mM NaCl, 1% glycerol, 20 mM imidazole). The column was washed with loading buffer for 5–10 CV and protein was eluted with elution buffer (50 mM Tris-HCl pH = 8, 250 mM NaCl, 1% glycerol, 400 mM imidazole). Simultaneous TEV cleavage (1 mg TEV protease was added to 100 mg peptides/proteins) and buffer exchange to loading buffer via dialysis was performed over night at 4 °C. After reverse IMAC, proteins were concentrated with conical concentrators (Millipore Merck, Darmstadt, Germany) and loaded on a Superdex 10/60 75 or 200 column (GE Healthcare, München, Germany) for further purification and equilibration with ITC/NMR buffer (25 mM HEPES pH = 7.5, 100 mM NaCl). […] The protein and peptide concentrations were calculated from the UV absorption at 280 nm by Nanodrop spectrophotometer (Thermo Scientific, Langenselbold, Germany).
All ITC experiments were performed at 25 °C using a VP-ITC microcalorimeter (Malvern Panalytical Ltd., Malvern, UK). […] The ITC data were analyzed based on a “one-site” binding model with MicroCal ITC software implemented in Origin 7.0.
In general terms: ITC needs no label: the signal is the heat of the interaction.

In a further assay the test system is AD^1–330. Nature of the assay: NMR titration of R1-R2-R3^325–404 with UBA5 AD^1–330. To be noted: 2-fold molar excess of AD^1–330, 900 MHz. How it is done:
All NMR experiments were performed at a sample temperature of 25 °C on Bruker 600, 700, 800, 900, and 950 MHz spectrometers equipped with cryogenic probes, and a 500 MHz spectrometer equipped with a room-temperature triple-resonance probe. All NMR spectra were analyzed with the Sparky 3.114 software (University of California, San Francisco, USA). For NMR titration experiments, the non-labeled UBA5 peptides were titrated to 100 µM ^13C,^15N-labeled UFC1 to a final molar ratio of 1:8 (UFC1:UBA5 peptide). Conversely, 100 µM ^13C,^15N-labeled UBA5 peptides were titrated with non-labeled UFC1 to a final molar ratio 1:4 (UBA5 peptide:UFC1). 2D ^1H-^15N correlation spectra ([^15N,^1H] TROSY-HSQC) were recorded at each titration point. The same types of spectra were recorded to estimate binding of ^13C,^15N-labeled UFC1 (75 µM) to non-labeled UBA5, UBA5~UFM1 and UFM1 at 1:2 molar ratios. CSP values, Δδ, were calculated for each individual amide group using the formula Δδ = [(ΔδN/5)^2 + Δδ^2HN)]^1/2. […]
experiment, non‐labelled AD1–330 construct was added to the 15N‐labelled R1‐R2‐R3325–404 peptide to a 2‐fold molar excess.
Representative area of [15N,1H] TROSY‐HSQC spectra recorded at 900 MHz for R1‐R2‐R3325–404 in free form (red contours) and in presence of AD1–330 (blue contours) are overlaid. […]

T1 sequence (P60520 3-116): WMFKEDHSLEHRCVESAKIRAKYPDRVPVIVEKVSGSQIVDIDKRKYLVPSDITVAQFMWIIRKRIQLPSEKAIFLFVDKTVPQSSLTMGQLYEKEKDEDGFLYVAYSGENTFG

Take “R1-R2-R3^325–404: UBA5 C-terminal part, residues 325–404 (recombinant, E. coli)”: in the assay with GABARAPL2, the “interaction with GABARAPL2 (in words)” value is “GABARAPL2 binds first to the LIR/UFIM region, and after saturation of this binding site, GABARAPL2 interacts with additional sites within the UBA5 C-terminus”. Moreover, in the assay with LC3A, the ΔG was -7.38 kcal/mol and the “−T*ΔS” value was -3.13 kcal/mol. Besides, in the assay with LC3A (value is KA × 10^−6, ± = fitting error), the “KA*10^−6” value was 0.26 ± 0.03 M^−1. Further, in the assay on AD^1–330, the “interaction with UBA5 AD” value is on record as “No interactions”.
